According to article PMC4169075:

What follows are substances tested against GABAA receptor β2 subunit, FLAG-tagged (β2^FLAG) (human) (UniProt P47870) (assay: co-IP).

| Substance | amount associated with β2^FLAG relative to wildtype γ2L^HA |
| --- | --- |
| GABAA receptor γ2L(N79S) subunit, HA-tagged (γ2L(N79S)^HA) | 0.94 |
| GABAA receptor γ2L(P83S) subunit, HA-tagged (γ2L(P83S)^HA) | 0.71 |
| GABAA receptor γ2L(R82Q) subunit, HA-tagged (γ2L(R82Q)^HA) | 0.47 |
